From US20110065652A1
Bridge positions count the residues as written; N and C are the ends. Square brackets hold non-standard residues; d marks the D form. Orn = NCCC[C@H](N)C(=O)O; Dab = NCC[C@H](N)C(=O)O

Key:
[1] = target: human recombinant melanocortin-3 receptor (hMC3-R) (human) (UniProt P41968); experiment: competitive binding against labelled NDP-α-MSH (I125 or Eu), HEK-293 hMC3-R membranes
[2] = target: human recombinant melanocortin-4 receptor (hMC4-R) (human) (UniProt P32245); experiment: cell-based or functional assay
[3] = target: human recombinant melanocortin-4 receptor (hMC4-R) (human) (UniProt P32245); experiment: competitive binding against [I125]-NDP-α-MSH, HEK-293 hMC4-R membranes
[4] = target: human recombinant melanocortin-5 receptor (hMC5-R) (human) (UniProt P33032); experiment: competitive binding against Eu-NDP-α-MSH, HEK-293 hMC5-R membranes
[5] = target: melanocortin-1 receptor (MC1-R), endogenous in B-16 mouse melanoma cells (mouse) (UniProt Q01727); experiment: competitive binding against [I125]-NDP-α-MSH, B-16 mouse melanoma membranes
Sequence of melanocortin-1 receptor (MC1-R), endogenous in B-16 mouse melanoma cells (mouse) (Q01727 whole entry): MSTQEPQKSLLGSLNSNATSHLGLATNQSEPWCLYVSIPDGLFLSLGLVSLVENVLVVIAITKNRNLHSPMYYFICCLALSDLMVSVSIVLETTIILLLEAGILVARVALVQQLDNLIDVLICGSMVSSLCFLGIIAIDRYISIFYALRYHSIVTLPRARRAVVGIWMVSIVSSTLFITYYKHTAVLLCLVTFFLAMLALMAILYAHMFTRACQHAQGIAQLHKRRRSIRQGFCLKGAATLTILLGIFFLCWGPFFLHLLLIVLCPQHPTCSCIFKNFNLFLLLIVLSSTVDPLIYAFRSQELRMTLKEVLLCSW

Sequence of human recombinant melanocortin-4 receptor (hMC4-R) (human) (P32245 whole entry): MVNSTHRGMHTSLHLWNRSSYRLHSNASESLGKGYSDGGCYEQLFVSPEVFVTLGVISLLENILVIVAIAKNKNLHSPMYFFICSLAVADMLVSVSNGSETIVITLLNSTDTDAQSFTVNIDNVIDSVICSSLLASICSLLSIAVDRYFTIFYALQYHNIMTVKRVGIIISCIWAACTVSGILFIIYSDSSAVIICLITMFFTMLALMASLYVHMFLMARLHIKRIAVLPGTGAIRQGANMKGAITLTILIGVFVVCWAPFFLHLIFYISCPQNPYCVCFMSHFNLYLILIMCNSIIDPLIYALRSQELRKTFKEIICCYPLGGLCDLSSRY
Sequence of human recombinant melanocortin-3 receptor (hMC3-R) (human) (P41968 whole entry): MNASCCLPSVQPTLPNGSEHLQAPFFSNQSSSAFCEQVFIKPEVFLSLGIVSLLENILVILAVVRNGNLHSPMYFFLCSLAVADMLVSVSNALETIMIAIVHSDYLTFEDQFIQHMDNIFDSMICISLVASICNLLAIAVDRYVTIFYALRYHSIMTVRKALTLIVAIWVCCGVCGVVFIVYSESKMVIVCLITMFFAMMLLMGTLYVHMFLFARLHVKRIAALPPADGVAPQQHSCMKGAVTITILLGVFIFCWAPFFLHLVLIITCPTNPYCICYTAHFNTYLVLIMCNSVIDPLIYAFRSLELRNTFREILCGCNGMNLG
Sequence of human recombinant melanocortin-5 receptor (hMC5-R) (human) (P33032 whole entry): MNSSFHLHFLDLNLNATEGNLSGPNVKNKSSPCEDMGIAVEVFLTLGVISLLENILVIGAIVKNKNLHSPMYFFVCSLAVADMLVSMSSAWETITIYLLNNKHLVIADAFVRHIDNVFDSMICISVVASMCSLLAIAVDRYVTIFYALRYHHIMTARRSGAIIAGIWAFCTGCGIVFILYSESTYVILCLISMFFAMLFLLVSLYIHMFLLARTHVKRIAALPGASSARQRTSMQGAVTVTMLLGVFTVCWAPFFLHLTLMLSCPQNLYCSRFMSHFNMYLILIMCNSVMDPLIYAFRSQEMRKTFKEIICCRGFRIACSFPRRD

| Binder | Ki [1] [nM] | EC50 (cAMP accumulation in HEK-293 cells expressing hMC4-R) [2] [nM] | intrinsic activity (cAMP, NDP-α-MSH is 100%) [2] [%] | Ki [3] [nM] | Ki [4] [nM] | Ki [5] [nM] |
| --- | --- | --- | --- | --- | --- | --- |
| Ac-RE[Dab][dF]RW[Orn]-NH2 (lactam 2-7; also: TFA salt) [cyclic peptide of Example 8.3, Ac-Arg-cyclo(Glu-Dab-D-Phe-Arg-Trp-Orn)-NH2] | 74 | 0.3 | 94 | 0.65 | 300 | 1 |
| Ac-RE[Dab][dF]RW[Orn]-OH (lactam 2-7; also: acetate and TFA salts) [cyclic peptide of Example 8.4, Ac-Arg-cyclo(Glu-Dab-D-Phe-Arg-Trp-Orn)-OH] | 410 |  | 91 | 8 | 2370 | 4 |
